What was measured:
Experiment in all cases: peptide microarray (RepliTope), 15-mers
[1] = target: T1, Reference peptide no. 31
T1 construct: hIL-2 15-mer, first library, parental Cys replaced by Ser, on microarray; also called peptide 31
T1 peptide: VIVLELKGSETTFMS
Procedure: (§1) Additional incubations are with unrelated antibodies from the same isotype (mouse control IgG2a/lambda and mouse control IgG2a/kappa), and secondary antibodies (anti-mouse IgG (Thermo 84545, label DL650) or anti-mouse IgG (JIR 115-175-072, Label Cy5)) to assess unspecific binding due to the detection antibody. The experiments are performed essentially as described in Maksimov P, et al. 2012, PLoS One 7:e34212. doi:10.1371/journal. pone. 0034212.
(§2) The determination of peptide-antibody binding was performed by RepliTope-analysis where the peptide microarray (triplicate) was incubated with the primary antibody followed by a fluorescently labelled secondary antibody directed against the Fc-part of the primary one. All steps were performed on a TECAN microarray processing station enabling highly reliable and reproducible washing and incubation steps. After performing the incubation steps and subsequent to the final washing steps (to remove the unbound secondary antibodies) the microarrays were dried using a nitrogen stream and scanned in a high resolution microarray scanning system with appropriate wavelength settings. Control incubations were performed with an unrelated antibody having the same isotype to exclude false positive signals.
(§3) The resulting images were analyzed und quantified using spot-recognition software GenePix (Molecular Devices). For each spot, the mean signal intensity was extracted (between 0 and 65535 arbitrary units). For further data evaluation, the MMC2 values were determined. The MMC2 equals the mean value of all three instances on the microarray. Except the coefficient of variation (CV)—standard-deviation divided by the mean value—is larger 0.5, in this case the mean of the two closest values (MC2) is assigned to MMC2.

[2] = target: T2, Reference peptide no. 34
T2 construct: hIL-2 15-mer, first library, parental Cys replaced by Ser, on microarray; also called peptide 34
T2 peptide: ETTFMSEYADETATI
Procedure: as §1, §2, §3

[3] = target: T3, Reference peptide no. 21
T3 construct: hIL-2 15-mer, first library, on microarray; also called peptide 21
T3 peptide: EELKPLEEVLNLAQS
Procedure: as §1, §2, §3

[4] = target: T4, Reference peptide no. 60
T4 construct: second library: peptide 24 with its first Leu replaced by Ala as printed (by count this is L90, not L92); also called peptide 60
T4 peptide: ANLAQSKNFHLRPRD
Procedure: as §1, §2, §3

[5] = target: T5, Reference peptide no. 30
T5 construct: hIL-2 15-mer, first library, on microarray; also called peptide 30
T5 peptide: NINVIVLELKGSETT
Procedure: as §1, §2, §3

[6] = target: T6, Reference peptide no. 17
T6 construct: hIL-2 15-mer, first library, parental Cys replaced by Ser, on microarray; also called peptide 17
T6 peptide: KATELKHLQSLEEEL
Procedure: as §1, §2, §3

[7] = target: T7, Reference peptide no. 12
T7 construct: hIL-2 15-mer, first library, on microarray; also called peptide 12
T7 peptide: PKLTRMLTFKFYMPK
Procedure: as §1, §2, §3

[8] = target: T8, Reference peptide no. 47
T8 construct: second library: peptide 11 with Y(65) to Ala; also called peptide 47
T8 peptide: YKNPKLTRMLTFKFA
Procedure: as §1, §2, §3

[9] = target: T9, Reference peptide no. 4
T9 construct: hIL-2 15-mer, first library, on microarray; also called peptide 4
T9 peptide: TQLQLEHLLLDLQMI
Procedure: as §1, §2, §3

[10] = target: T10, Reference peptide no. 33
T10 construct: hIL-2 15-mer, first library, parental Cys replaced by Ser, on microarray; also called peptide 33
T10 peptide: KGSETTFMSEYADET
Procedure: as §1, §2, §3

[11] = target: T11, Reference peptide no. 22
T11 construct: hIL-2 15-mer, first library, on microarray; also called peptide 22
T11 peptide: KPLEEVLNLAQSKNF
Procedure: as §1, §2, §3

[12] = target: T12, Reference peptide no. 27
T12 construct: hIL-2 15-mer, first library, on microarray; also called peptide 27
T12 peptide: HLRPRDLISNINVIV
Procedure: as §1, §2, §3

[13] = target: T13, Reference peptide no. 26
T13 construct: hIL-2 15-mer, first library, on microarray; also called peptide 26
T13 peptide: KNFHLRPRDLISNIN
Procedure: as §1, §2, §3

[14] = target: T14, Reference peptide no. 40
T14 construct: hIL-2 15-mer, first library, parental Cys replaced by Ser, on microarray; also called peptide 40
T14 peptide: LNRWITFSQSIISTL
Procedure: as §1, §2, §3

[15] = target: T15, Reference peptide no. 51
T15 construct: second library: peptide 15 with Y(65) to Ala; also called peptide 51
T15 peptide: KFAMPKKATELKHLQ
Procedure: as §1, §2, §3

[16] = target: T16, Reference peptide no. 19
T16 construct: hIL-2 15-mer, first library, parental Cys replaced by Ser, on microarray; also called peptide 19
T16 peptide: HLQSLEEELKPLEEV
Procedure: as §1, §2, §3

[17] = target: T17, Reference peptide no. 16
T17 construct: hIL-2 15-mer, first library, parental Cys replaced by Ser, on microarray; also called peptide 16
T17 peptide: MPKKATELKHLQSLE
Procedure: as §1, §2, §3

[18] = target: T18, Reference peptide no. 9
T18 construct: hIL-2 15-mer, first library, on microarray; also called peptide 9
T18 peptide: LNGINNYKNPKLTRM
Procedure: as §1, §2, §3

[19] = target: T19, Reference peptide no. 41
T19 construct: hIL-2 15-mer, first library, parental Cys replaced by Ser, on microarray; also called peptide 41
T19 peptide: NRWITFSQSIISTLT
Procedure: as §1, §2, §3

[20] = target: T20, Reference peptide no. 58
T20 construct: second library: peptide 22 with L(92) to Ala; also called peptide 58
T20 peptide: KPLEEVLNAAQSKNF
Procedure: as §1, §2, §3

[21] = target: T21, Reference peptide no. 24
T21 construct: hIL-2 15-mer, first library, on microarray; also called peptide 24
T21 peptide: LNLAQSKNFHLRPRD
Procedure: as §1, §2, §3

[22] = target: T22, Reference peptide no. 57
T22 construct: second library: peptide 21 with L(92) to Ala; also called peptide 57
T22 peptide: EELKPLEEVLNAAQS
Procedure: as §1, §2, §3

[23] = target: T23, Reference peptide no. 35
T23 construct: hIL-2 15-mer, first library, parental Cys replaced by Ser, on microarray; also called peptide 35
T23 peptide: FMSEYADETATIVEF
Procedure: as §1, §2, §3

Measured: binding result

B1: NARA1 (antibody, mouse IgG2a, kappa, V domains shown)
VH: QVQLQQSGAELVRPGTSVKVSCKASGYAFTNYLIEWVKQRPGQGLEWIGVINPGSGGTNYNEKFKGKATLTADKSSSTAYMQLSSLTSDDSAVYFCARWRGDGYYAYFDVWGAGTTVTVSS
VL: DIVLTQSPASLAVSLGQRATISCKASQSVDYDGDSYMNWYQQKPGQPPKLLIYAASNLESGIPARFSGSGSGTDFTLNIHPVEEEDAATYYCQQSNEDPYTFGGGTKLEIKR
notes: Mouse monoclonal from hybridoma; Isotype controls used were mouse IgG2a; also called anti-IL2 (NARA1) antibody; monoclonal antibody NARA1
no binding: [1] | [2] | [3] | [4] | [5] | [6] | [7] | [8] | [9] | [10] | [11] | [12] | [13] | [14] | [15] | [16] | [17] | [18] | [19] | [20] | [21] | [22] | [23]

Reference: patent US20170183403A1 (UNIVERSIT T Z RICH, published 2017)
